Results reported in US20170014486A1.

Target: natriuretic polypeptide receptor A (Npra), mouse (mouse) (UniProt P18293)
Assay: cell-based or functional assay

UniProt P18293, sequence (P18293 29-1057 limits assumed): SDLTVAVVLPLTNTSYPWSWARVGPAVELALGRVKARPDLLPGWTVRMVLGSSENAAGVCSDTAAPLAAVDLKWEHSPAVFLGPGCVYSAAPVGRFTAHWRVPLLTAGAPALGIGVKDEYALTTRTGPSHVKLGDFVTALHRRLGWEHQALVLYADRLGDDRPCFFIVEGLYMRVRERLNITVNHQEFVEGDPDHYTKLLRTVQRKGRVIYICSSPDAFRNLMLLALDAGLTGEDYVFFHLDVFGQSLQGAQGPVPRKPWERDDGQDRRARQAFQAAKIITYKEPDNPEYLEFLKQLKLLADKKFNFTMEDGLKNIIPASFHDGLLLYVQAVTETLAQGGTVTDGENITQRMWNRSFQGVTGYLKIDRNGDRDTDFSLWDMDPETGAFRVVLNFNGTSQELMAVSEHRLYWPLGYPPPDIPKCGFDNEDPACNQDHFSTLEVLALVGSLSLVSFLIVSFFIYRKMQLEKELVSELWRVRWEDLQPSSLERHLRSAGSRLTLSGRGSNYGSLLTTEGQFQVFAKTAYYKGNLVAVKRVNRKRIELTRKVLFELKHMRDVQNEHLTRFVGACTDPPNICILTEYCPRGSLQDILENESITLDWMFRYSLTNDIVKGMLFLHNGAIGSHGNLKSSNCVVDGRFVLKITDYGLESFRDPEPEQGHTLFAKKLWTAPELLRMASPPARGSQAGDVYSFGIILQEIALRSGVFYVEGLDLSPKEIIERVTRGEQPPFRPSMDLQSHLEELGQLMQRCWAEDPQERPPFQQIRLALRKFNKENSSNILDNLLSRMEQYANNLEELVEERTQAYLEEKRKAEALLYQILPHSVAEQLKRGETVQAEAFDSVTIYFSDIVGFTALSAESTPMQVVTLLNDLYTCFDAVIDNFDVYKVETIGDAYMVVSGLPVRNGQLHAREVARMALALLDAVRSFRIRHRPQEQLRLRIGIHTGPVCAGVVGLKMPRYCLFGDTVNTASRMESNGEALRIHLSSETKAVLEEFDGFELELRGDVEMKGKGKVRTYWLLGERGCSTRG

In the case of Nppb-saporin conjugate, the Npra-positive spinal cord neurons eliminated after intrathecal injection (ISH cell counts) is reported as 70%.
